T1: yeast SNF1 protein bait (yeast, UniProt P06782)
T1 sequence: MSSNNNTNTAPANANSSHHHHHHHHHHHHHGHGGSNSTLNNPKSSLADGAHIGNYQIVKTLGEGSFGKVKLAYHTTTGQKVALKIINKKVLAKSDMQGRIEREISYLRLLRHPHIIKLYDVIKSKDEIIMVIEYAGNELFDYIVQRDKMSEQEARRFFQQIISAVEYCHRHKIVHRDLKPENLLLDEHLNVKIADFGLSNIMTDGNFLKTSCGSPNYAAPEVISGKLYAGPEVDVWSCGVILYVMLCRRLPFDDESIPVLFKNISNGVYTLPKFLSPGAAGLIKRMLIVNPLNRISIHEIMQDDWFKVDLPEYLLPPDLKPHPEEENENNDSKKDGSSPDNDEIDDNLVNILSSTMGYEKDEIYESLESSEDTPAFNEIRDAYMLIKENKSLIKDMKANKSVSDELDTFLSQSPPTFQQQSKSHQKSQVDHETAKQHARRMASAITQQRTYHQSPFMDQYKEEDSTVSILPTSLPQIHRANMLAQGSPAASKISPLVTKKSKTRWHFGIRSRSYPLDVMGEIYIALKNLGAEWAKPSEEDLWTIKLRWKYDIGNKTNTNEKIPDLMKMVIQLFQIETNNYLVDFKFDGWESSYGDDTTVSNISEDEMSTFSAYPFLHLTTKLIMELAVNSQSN


What was measured:
[1] = target: human Bax (two-hybrid partner) (human, UniProt Q07812); assay: yeast two-hybrid
[2] = target: GAL4 DNA binding domain alone (vectors pMA424 or pAS1) (yeast, UniProt P04386); assay: yeast two-hybrid with the empty GAL4 DNA binding domain vectors
yeast SNF1 protein bait = target: T1, yeast SNF1 protein bait; assay: yeast two-hybrid in strain Y153, X-gal (W = White)
Procedure: To determine the specificity of the two hybrid interaction, the three clones, 22, 44 and 91, were tested against baits expressing several heterologous proteins (Table 1). Among the various heterologous protein baits used, the adenovirus E3 11.6 kD protein is of particular interest as that protein localizes on the nuclear envelope region and has an internal hydrophobic domain like the E1B 19 kD protein (Scaria et al., 1992).
B = Blue W = White [@]Interactions with all baits except the yeast SNF1 protein were carried out in yeast Strain GGY1::171. Interaction with SNF1 was carried out in yeast strain Y153. *Colonies which appeared on -his, -trp, -leu plates after 6–8 days. Results of X-gal staining are indicated as B, blue; W, white; or ND, not done. The heterologous baits pLAM5 (human lamin) and pAS-SNF1 (yeast SNF1) have been described (Bartel et al., 1993, Durfee et al., 1993). Baits pHIV-1 Rev, pHIV-1 Tat, pHIV-1 Nef and pHTLV-1 Rex expressing the various HIV or HTLV regulating proteins were constructed as described herein and obtained from Cleta D'Sa Eipper and T. Subramanian, St. Louis University Medical Center, St. Louis, MO.

Binder | binding result [1] | binding result [2] | binding result (yeast SNF1 protein bait)
Nip1 (19K-interacting protein 1), protein coded by cDNA clone 22, tagged with the GAL4 activation domain (other) PQDVHVRICNQEIVKFDLEVKALIQDIRDCSGPLSALTELNTKVKEKFQQLRHRIQDLEQLAKEQDKESEKQLLLQEVENHKKQMLSNQASWRKANLTCKIAIDNLEKAELLQGGDLLRQRKTTKESLAQTSSTITESLMGISRMMAQQVQQSEEAMQSLVTSSRTILDANEEFKSMSGTIQLGRKLITKYNRRELTDKLLIFLALRLFLATVLYIVKKRLFPFL | no binding | no binding | –
Nip2 (19K-interacting protein 2), protein coded by cDNA clone 44, tagged with the GAL4 activation domain (other) MEGVELKEEWQDEDFPIPLPEDDSIEADILAITGPEDQPGSLEVNGNKVRKKLMAPDISLTLDPSDGSVLSDDLDESGEIDLDGLDTPSENSNEFEWEDDLPKPKTTEVIRKGSITEYTAAEEKEDGRRWRMFRIGEQDHRVDMKAIEPYKKVISHGGYYGDGLNAIVVFAVCFMPESSQPNYRYLMDNLFKYVIGTLELLVAENYMIVYLNGATTRRKMPSLGWLRKCYQQIDRRLRKNLKSLIIVHPSWFIRTLLAVTRPFISSKFSQKIRYVFNLAELAEL | – | no binding | no binding

Source: patent publication US5858678, “Apoptosis-regulating proteins” (St. Louis University, dated 1999)
